Assay results as given in US20220347236A1 (GL INNOVATION, published 2022).
One block for each binder: values may come before it.

Key:
[1] = molecular target: T1, human IgE (human, UniProt P01854-1 1-428); experiment: cell-based or functional assay
[2] = molecular target: T2, mouse IgE (anti-dinitrophenyl IgE) (mouse, UniProt P06336 1-421); experiment: cell-based or functional assay
[3] = molecular target: T2, mouse IgE (anti-dinitrophenyl IgE); experiment: cell-based or functional assay; remark: listed apart in the source
[4] = molecular target: T1, human IgE; experiment: SPR (ProteOn XPR36), human IgE
[5] = molecular target: T1, human IgE; experiment: SPR (ProteOn XPR36), ratio of KD to that of omalizumab
Experimental: (§1) The experiments were conducted by identifying zero base using 25 mM NaOH as a regeneration buffer, and then repeating the above steps. Thereafter, a binding curve was identified using a protein binding analyzer (ProteOn XPR36, Bio-Rad Laboratories, Inc., USA).

[6] = molecular target: T1, human IgE; experiment: SPR (ProteOn XPR36), ratio of ka to that of omalizumab
Experimental: as §1

[7] = molecular target: T1, human IgE; experiment: SPR (ProteOn XPR36), ratio of kd to that of omalizumab
Experimental: as §1

[8] = molecular target: T1, human IgE; experiment: SPR (ProteOn XPR36), ratio of KD of omalizumab to KD of IgETRAP
Experimental: as §1

[9] = molecular target: T1, human IgE; experiment: SPR (ProteOn XPR36, GLC chip), IgE coated, protein flowed; KD = kd/ka
Experimental: as §1

[10] = molecular target: T1, human IgE; experiment: SPR (ProteOn XPR36, GLC chip), IgE coated, protein flowed at various concentrations
Experimental: as §1

[11] = molecular target: T1, human IgE; experiment: SPR kinetics on IgE (Table 3), omalizumab as reference; paragraph 125 ties the 69-fold end to FcεRIαECD-Fc2ST
Experimental: as §1

[12] = molecular target: T1, human IgE; experiment: SPR kinetics on IgE (Table 3), omalizumab as reference; paragraph 125 ties the 1.5-fold end to FceR1αECD-Fc2ST
Experimental: as §1

T2 sequence (P06336 whole entry): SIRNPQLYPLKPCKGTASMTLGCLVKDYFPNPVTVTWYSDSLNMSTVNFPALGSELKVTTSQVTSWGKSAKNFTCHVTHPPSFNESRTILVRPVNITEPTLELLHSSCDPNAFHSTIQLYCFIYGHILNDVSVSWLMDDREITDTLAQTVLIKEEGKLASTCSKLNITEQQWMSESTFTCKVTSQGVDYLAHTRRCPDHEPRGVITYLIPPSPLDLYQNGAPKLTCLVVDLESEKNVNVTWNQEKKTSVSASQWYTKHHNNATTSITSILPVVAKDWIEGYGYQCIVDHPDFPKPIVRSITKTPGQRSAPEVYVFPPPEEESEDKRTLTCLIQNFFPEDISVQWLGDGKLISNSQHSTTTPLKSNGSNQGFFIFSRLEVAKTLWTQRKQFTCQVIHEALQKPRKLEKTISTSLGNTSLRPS
T1 sequence (P01854 other isoform, or with tags, fused parts or gaps): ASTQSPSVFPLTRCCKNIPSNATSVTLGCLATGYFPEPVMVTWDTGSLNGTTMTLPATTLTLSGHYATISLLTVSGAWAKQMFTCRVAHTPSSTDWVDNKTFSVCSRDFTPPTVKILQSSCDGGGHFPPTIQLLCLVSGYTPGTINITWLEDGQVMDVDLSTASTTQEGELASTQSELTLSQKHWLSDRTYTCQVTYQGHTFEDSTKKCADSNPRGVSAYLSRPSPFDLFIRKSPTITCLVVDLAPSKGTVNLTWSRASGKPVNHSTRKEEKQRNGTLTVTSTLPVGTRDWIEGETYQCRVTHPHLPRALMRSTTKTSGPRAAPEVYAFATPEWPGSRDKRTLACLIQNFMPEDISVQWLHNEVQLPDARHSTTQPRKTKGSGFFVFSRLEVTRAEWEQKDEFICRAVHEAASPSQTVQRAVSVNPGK

- IC50 of mast cell inhibition (β-hexosaminidase release, human FcεRI-expressing mouse bone marrow-derived mast cells, human IgE 1 ug/mL) [1]: ~0.0112 µg/mL
- fold higher inhibitory ability on mast cell activity than Xolair [1]: 58 fold
- IC50 of inhibition of degranulation of mouse bone marrow-derived mast cells (β-hexosaminidase release) in the presence of 1 µg/ml mouse IgE [2]: 0.45 µg/mL
- Average inhibition ratio (%) of mast cell degranulation at IgETRAP 0.016 ug/mL (0.11 nM; IgE/IgETRAP molar ratio 47.8), anti-DNP IgE 1 ug/mL [3]: 2.12%
- Average inhibition ratio (%) of mast cell degranulation at IgETRAP 0.063 ug/mL (0.42 nM; IgE/IgETRAP molar ratio 12.5), anti-DNP IgE 1 ug/mL [3]: 12.4%
- Average inhibition ratio (%) of mast cell degranulation at IgETRAP 0.25 ug/mL (1.67 nM; IgE/IgETRAP molar ratio 3.15), anti-DNP IgE 1 ug/mL [3]: 13.8%
- Average inhibition ratio (%) of mast cell degranulation at IgETRAP 0.5 ug/mL (3.33 nM; IgE/IgETRAP molar ratio 1.58), anti-DNP IgE 1 ug/mL [3]: 49.4%
- Average inhibition ratio (%) of mast cell degranulation at IgETRAP 1 ug/mL (6.67 nM; IgE/IgETRAP molar ratio 0.79), anti-DNP IgE 1 ug/mL [3]: 99.3%
- Average inhibition ratio (%) of mast cell degranulation at IgETRAP 2 ug/mL (13.3 nM; IgE/IgETRAP molar ratio 0.40), anti-DNP IgE 1 ug/mL [3]: 99.4%
- Average inhibition ratio (%) of mast cell degranulation at IgETRAP 4 ug/mL (26.7 nM; IgE/IgETRAP molar ratio 0.20), anti-DNP IgE 1 ug/mL [3]: 99.8%
- Kd [4]: 0.215 nM
- koff [4]: 5.69e-05 s⁻¹
- kon [4]: 264000 M⁻¹ s⁻¹
- fold of KD against omalizumab [5]: 69 fold
- fold of ka against omalizumab [6]: 1.5 fold
- fold of dissociation rate (Kd) against omalizumab [7]: ~94.5 fold
- fold of kd against omalizumab [7]: 106 fold
- Comparison of KD [Omalizumab/IgETRAP] [8]: ~69 fold
- Kd [9]: 0.216 nM
- koff [10]: 5.69e-05 s⁻¹
- kon [10]: 264000 M⁻¹ s⁻¹
- fold change of equilibrium dissociation constant (KD) against omalizumab (printed 'higher'; meant as stronger binding) [11]: 22 to 69 fold
- fold lower association rate (ka) than omalizumab [12]: 1.5 to 2 fold
B1: FcεRIαECD-Fc2ST (Fc fusion)
chain: VPQKPKVSLNPPWNRIFKGENVTLTCNGNNFFEVSSTKWFHNGSLSEETNSSLNIVNAKFEDSGEYKCQHQQVNESEPVYLEVFSDWLLLQASAEVVMEGQPLFLRCHGWRNWDVYKVIYYKDGEALKYWYENHNISITNATVEDSGTYYCTGKVWQLDYESEPLNITVIKAPREKYWLQRNTGRGGEEKKGSKEKEEQEERETKTPECPSHTQPLGVFLFPPKPKDTLMISRTPEVTCVVVDVSQEDPEVQFNWYVDGVEVHNAKTKPREEQFNSTYRVVSVLTVLHQDWLNGKEYKCKVSNKGLPSSIEKTISKAKGQPREPQVYTLPPSQEEMTKNQVSLTCLVKGFYPSDIAVEWESNGQPENNYKTTPPVLDSDGSFFLYSRLTVDKSRWQEGNVFSCSVMHEALHNHYTQKSLSLSLGK
modifications: sialic acid added (α-2,6-sialic acid transferase co-expressed)
notes: Homodimer; also called IgETRAP; FceR1αECD-Fc2ST

- fold of KD against omalizumab [5]: 38 fold
- fold of ka against omalizumab [6]: 1.9 fold
- fold of kd against omalizumab [7]: 73 fold
- Kd [9]: 0.388 nM
- koff [10]: 8.29e-05 s⁻¹
- kon [10]: 214000 M⁻¹ s⁻¹
B2: FcεRIαECD-Fc2 (Fc fusion)
chain: B1 chain
notes: also called FcεRIα ECD fusion protein; polypeptide dimer

- fold of KD against omalizumab [5]: 22 fold
- fold of ka against omalizumab [6]: 2 fold
- fold of kd against omalizumab [7]: 45 fold
- Kd [9]: 0.672 nM
- koff [10]: 0.000133 s⁻¹
- kon [10]: 198000 M⁻¹ s⁻¹
B3: FcεRIαECD-Fc3 (Fc fusion)
chain: VPQKPKVSLNPPWNRIFKGENVTLTCNGNNFFEVSSTKWFHNGSLSEETNSSLNIVNAKFEDSGEYKCQHQQVNESEPVYLEVFSDWLLLQASAEVVMEGQPLFLRCHGWRNWDVYKVIYYKDGEALKYWYENHNISITNATVEDSGTYYCTGKVWQLDYESEPLNITVIKAPREKYWLQAQPQAEGSLAKATTAPATTRNTGRGGEEKKGSKEKEEQEERETKTPECPSHTQPLGVFLFPPKPKDTLMISRTPEVTCVVVDVSQEDPEVQFNWYVDGVEVHNAKTKPREEQFNSTYRVVSVLTVLHQDWLNGKEYKCKVSNKGLPSSIEKTISKAKGQPREPQVYTLPPSQEEMTKNQVSLTCLVKGFYPSDIAVEWESNGQPENNYKTTPPVLDSDGSFFLYSRLTVDKSRWQEGNVFSCSVMHEALHNHYTQKSLSLSLGK

- fold of KD against omalizumab [5]: 24 fold
- fold of ka against omalizumab [6]: 1.7 fold
- fold of kd against omalizumab [7]: 40 fold
- Kd [9]: 0.621 nM
- koff [10]: 0.000149 s⁻¹
- kon [10]: 240000 M⁻¹ s⁻¹
B4: FcεRIαECD-Fc3ST (Fc fusion)
chain: B3 chain
modifications: sialic acid added (α-2,6-sialic acid transferase co-expressed)
notes: Dimer; also called FcεRIαECD-Fc3 + a2,6-ST
